Positions count from the first letter of the chain named.

The text below walks through data of US20060121042A1 (AstraZeneca / MedImmune, published 2006).

For one assay, the target named is T1, hEphA2 (human, UniProt P29317).
T1 construct: also called human EphA2
The assay can be described thus: ELISA.

For assay [1], the target named is T2, r murine EphA3 (mouse, UniProt P29319).
T2 construct: recombinant Fc fusion (R&D Systems); also called rmuEphA3-Fc; mEphA3
T2 sequence (receptor-Fc fusion, looked up): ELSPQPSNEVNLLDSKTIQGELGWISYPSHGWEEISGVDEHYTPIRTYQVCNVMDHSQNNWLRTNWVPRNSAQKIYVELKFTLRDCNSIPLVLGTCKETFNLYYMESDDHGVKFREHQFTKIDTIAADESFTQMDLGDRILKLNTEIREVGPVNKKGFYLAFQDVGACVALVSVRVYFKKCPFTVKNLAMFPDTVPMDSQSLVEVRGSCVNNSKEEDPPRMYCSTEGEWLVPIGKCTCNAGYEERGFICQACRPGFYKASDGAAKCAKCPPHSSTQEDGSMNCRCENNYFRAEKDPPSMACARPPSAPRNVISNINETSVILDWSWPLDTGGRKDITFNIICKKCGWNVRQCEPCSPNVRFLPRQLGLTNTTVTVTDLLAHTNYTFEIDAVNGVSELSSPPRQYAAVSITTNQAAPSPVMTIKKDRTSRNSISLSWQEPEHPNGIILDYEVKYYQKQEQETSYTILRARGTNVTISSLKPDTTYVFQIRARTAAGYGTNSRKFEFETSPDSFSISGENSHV
Description: activity ELISA, Fab on coated antigen. How it is done:
(§1) More precisely, Nunc Maxisorp plates were coated with the following rEphA proteins: rhuEphAl-Fc, rmuEphA2-Fc, rmuEphA3-Fc, rmuEphA4-Fc, rratEphA5-Fc, rmuEphA6-Fc, rmuEphA7-Fc, rEphA8; all at 0.5 μg/well (all R&D Systems) rhuEphA2-Fc; 0.5 μg/well, and rhuEphA4-His; 0.1 μg/well (both produced at MedImmune, Inc.). Plates were blocked with 3% BSA+0.1% Tween20 for 2 h. […] Incubation with a goat anti-human kappa horseradish peroxydase (HRP) conjugate then followed. HRP activity was detected with TMB substrate and the reaction quenched with 0.2 M H₂SO₄. Plates were read at 450 nm. Data was analyzed by normalizing Fab concentrations to the corresponding activity data (see FIGS. 10B-10H).

Assay [2] deals with T3, r murine EphA4 (mouse, UniProt Q03137).
T3 construct: recombinant Fc fusion (R&D Systems); also called rmuEphA4-Fc; mEphA4
Description: activity ELISA, Fab on coated antigen. Here is the method:
as §1

For assay [3], the target named is T4, r murine EphA7 (mouse, UniProt Q61772).
T4 construct: recombinant Fc fusion (R&D Systems); also called rmuEphA7-Fc; mEphA7
T4 sequence (receptor-Fc fusion, looked up): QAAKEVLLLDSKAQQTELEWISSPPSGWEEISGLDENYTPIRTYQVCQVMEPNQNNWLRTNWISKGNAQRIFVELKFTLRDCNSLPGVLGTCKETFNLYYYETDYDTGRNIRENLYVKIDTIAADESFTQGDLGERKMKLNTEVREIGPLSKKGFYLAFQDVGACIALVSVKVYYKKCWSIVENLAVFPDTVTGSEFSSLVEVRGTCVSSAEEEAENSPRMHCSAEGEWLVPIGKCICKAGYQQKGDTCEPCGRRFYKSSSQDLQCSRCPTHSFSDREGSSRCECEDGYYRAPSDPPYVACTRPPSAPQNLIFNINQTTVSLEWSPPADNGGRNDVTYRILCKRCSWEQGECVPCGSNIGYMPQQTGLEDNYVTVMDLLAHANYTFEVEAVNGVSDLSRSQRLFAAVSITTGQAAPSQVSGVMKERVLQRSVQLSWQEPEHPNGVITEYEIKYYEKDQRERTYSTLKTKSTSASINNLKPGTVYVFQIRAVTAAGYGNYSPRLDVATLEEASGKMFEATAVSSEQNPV
The assay can be described thus: activity ELISA, Fab on coated antigen. How it is done: as §1

The target of assay [4] is T2, r murine EphA3. The assay can be described thus: activity ELISA, IgG on coated antigen. Here is the method:
(§2) Secondary screening of IgG constructs of affinity optimized combinatorial variants with additional EphA receptors: With purified IgG constructs of the nine combinatorial variants, additional secondary screening assays were performed using the Activity ELISA (see above) and recombinant EphA receptor proteins. More precisely, Nunc Maxisorp plates were coated with the following rEphA proteins: rhuEphAl-Fc; 0.5 μg/well, rmuEphA2-Fc; 0.5 μg/well, rmuEphA3-Fc: 0.1 μg/well, rmuEphA4-Fc; 0.1 μg/well, rratEphA5-Fc; 0.5 μg/well, rmuEphA6-Fc; 0.5 μg/well, rmuEphA7-Fc; 0.1 μg/well, rEphA8; 0.2 μg/well (all R&D Systems), rhuEphA2-Fc; 0.5 μg/well, and rhuEphA4-His; 0.1 μg/well (both produced at MedImmune, Inc.). Plates were blocked with 3% BSA+0.1% Tween20 for 2 h. […] Incubation with a goat anti-human kappa horseradish peroxydase (HRP) conjugate then followed. HRP activity was detected with TMB substrate and the reaction quenched with 0.2 M H₂SO₄. Plates were read at 450 nm. Data was analyzed by normalizing Fab concentrations to the corresponding activity data (see FIGS. 12A-12J and 14).

The target of assay [5] is T3, r murine EphA4. The assay can be described thus: activity ELISA, IgG on coated antigen. How it is done:
as §2

Assay [6] has as its target T4, r murine EphA7. Description: activity ELISA, IgG on coated antigen. How it is done:
as §2

Assay [7] has as its target T5, Human EphA4-Fc fusion protein (human, UniProt P54764 20-547).
T5 construct: not shown: Fc portion of a human IgG1
Description: BIAcore, IgG immobilized on the sensor chip, EphA4-Fc as analyte. How it is done:
(§3) FIG. 15A-15B. […] Binding affinities were measured using the BIAcore assay. […] Variant kinetic measurements for human EphA4 and were obtained using BIAcore with immobilized variant antibodies and human EphA4-Fc and EphA4-His as analytes.

The target of the next assay is T6, mEphA3 (mouse, UniProt P29319).
T6 construct: part of an Fc fusion; also called rmuEphA3-Fc
T6 sequence (receptor-Fc fusion, looked up): T2 sequence (receptor-Fc fusion, looked up)
The assay can be described thus: ELISA, receptor coated on the plate, purified IgG, anti-human kappa-HRP. How it is done: as §2

The target in another assay is T7, mEphA4 (mouse, UniProt Q03137).
T7 construct: part of an Fc fusion; also called rmuEphA4-Fc
The assay is described as above. How it is done: as §2

The target of another assay is T8, mEphA7 (mouse, UniProt Q61772).
T8 construct: part of an Fc fusion; also called rmuEphA7-Fc
T8 sequence (receptor-Fc fusion, looked up): T4 sequence (receptor-Fc fusion, looked up)
The assay is described as above. How it is done: as §2

Assay [8] addresses T9, Human EphA4-His fusion protein (human, UniProt P54764 20-547).
T9 construct: also called rhuEphA4-His; not shown: Histidine tag
The assay can be described thus: BIAcore, IgG immobilized on the sensor chip, EphA4-his as analyte. Here is the method:
as §3

T7 sequence (Q03137 20-547 limits assumed): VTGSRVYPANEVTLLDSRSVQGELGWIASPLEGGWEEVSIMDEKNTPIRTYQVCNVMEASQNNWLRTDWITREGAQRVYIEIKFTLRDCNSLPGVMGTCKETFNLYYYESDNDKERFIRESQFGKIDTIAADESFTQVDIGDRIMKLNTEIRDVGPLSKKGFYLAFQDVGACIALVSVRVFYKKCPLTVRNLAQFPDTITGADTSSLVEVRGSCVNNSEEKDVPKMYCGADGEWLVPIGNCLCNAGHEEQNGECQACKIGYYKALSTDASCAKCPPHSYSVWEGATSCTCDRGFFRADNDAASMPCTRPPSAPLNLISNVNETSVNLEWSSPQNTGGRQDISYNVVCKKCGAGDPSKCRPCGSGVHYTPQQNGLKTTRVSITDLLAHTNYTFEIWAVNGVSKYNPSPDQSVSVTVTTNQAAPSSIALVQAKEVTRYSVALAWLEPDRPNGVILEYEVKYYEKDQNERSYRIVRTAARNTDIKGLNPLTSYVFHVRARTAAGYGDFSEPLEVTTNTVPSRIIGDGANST
T3 sequence (Q03137 20-547 limits assumed): as above
T1 sequence (P29317 25-534 limits assumed): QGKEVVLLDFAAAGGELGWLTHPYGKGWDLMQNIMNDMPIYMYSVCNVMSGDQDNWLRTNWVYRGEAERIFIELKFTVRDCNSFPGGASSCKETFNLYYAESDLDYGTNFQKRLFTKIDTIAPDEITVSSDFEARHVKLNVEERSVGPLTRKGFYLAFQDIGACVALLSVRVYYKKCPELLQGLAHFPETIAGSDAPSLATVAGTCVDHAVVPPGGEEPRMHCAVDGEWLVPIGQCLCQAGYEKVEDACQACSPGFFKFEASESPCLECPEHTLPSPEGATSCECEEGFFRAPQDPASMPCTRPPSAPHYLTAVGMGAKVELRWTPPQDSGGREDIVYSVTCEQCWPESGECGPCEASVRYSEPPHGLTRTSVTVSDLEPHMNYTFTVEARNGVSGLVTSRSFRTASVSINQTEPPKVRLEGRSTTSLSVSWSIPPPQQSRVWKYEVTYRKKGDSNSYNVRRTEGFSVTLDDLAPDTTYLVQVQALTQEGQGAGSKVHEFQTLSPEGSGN
T5 sequence (P54764 20-547): as the sequence (Q03137 20-547 limits assumed) above, with A59P, S121N, G124V, Q250R, N251S, S270T, R378K, S406N counted along it
T9 sequence (P54764 20-547): as the sequence (Q03137 20-547 limits assumed) above, with A59P, S121N, G124V, Q250R, N251S, S270T, R378K, S406N counted along it

B1: 12G3H11 (antibody, V domains shown)
VH: QMQLVQSGPEVKKPGTSVKVSCKASGFTFDDYSMNWVRQARGQRLEWIGFIRNKANDYTTEYADSVKGRVTITRDMSTSTAYMELSSLRSEDTAVYYCARYPRHHAMDSWGQGTSVTVSS
VL: DIQMTQSPSSLSASVGDRVTITCRASQSISNNLHWYQQKPGKAPKLLIKYAFQSISGVPSRFSGSGSGTDFTFTISSLQPEDFATYYCQQANSWPLTFGGGTKVEIK
Consider B1, for which, in the assay with hEphA2, the “ELISA O.D. value” is 0.849.

B2: 4H5 (antibody, V domains shown)
VH: QVQLLESGGGLVQPGGSLRLSCAASGFTFSSYTMSWVRQAPGQALEWMGTISSGGTYTYYPDSVKGRFTISRDNAKNSLYLQMNSLRAEDTAVYYCAREAIFTYWGRGTLVTVSS
VL: DIQLTQSPSSLSASVGDRVTITCKASQDINNYLSWYQQKPGQAPRLLIYRANRLVDGVPDRFSGSGYGTDFTLTINNIESEDAAYYFCLKYDVFPYTFGQGTKVEIK
Turning to B2, the “ELISA O.D. value” with hEphA2 was 0.724.

B3: EA5 (antibody, V domains shown)
VH: EVQLQQSGPELVKTGASVKISCKASGYSFTGYYMHWVKQSHGKSLEWIGYISCYNGVTSYNQKFKGKATFTVDTSSSTAYMQFNSLTSEDSAVYYCARSHAMDYWGQGTSVTVSS
VL: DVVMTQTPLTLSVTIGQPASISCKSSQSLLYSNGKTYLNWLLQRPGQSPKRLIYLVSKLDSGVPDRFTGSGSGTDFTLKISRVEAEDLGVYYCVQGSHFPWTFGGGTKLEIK
Turning to B3, the “ELISA O.D. value” with hEphA2 worked out at 0.131.

B4: 6B7 Fab (affinity optimized combinatorial variant of Fab20) (Fab, V domains shown)
VH: QVQLLQSGAEVKKPGASVKVPCKASGYTFTSRAMSWVRQAPGQGLEWMGWINTNTGNPTYAQGFTGRFVFSLDTSVSTAYLQISSLKAEDTAVYYCARVRFTVYGDGMDVWGQGTLVTVSS
VL: EIVLTQSPATLSVSPGERATLSCRASQSVSSNPAWYQQKPGQAPRLLIYGASTRATGIPDRFSASGSGTDFTLTISRVEPEDFAVYYCQQYGPSWTFGQGTKVEIK
For B4, the binding result with r murine EphA3 [1], with r murine EphA4 [2] and with r murine EphA7 [3] was “binds” throughout.

B5: 1G11 IgG1 (affinity optimized combinatorial variant of mAb GEA44 in human IgG1 format) (antibody, V domains shown)
VH: B4 VH
VL: B4 VL with P33L, A34P, A55P
Take B5: the binding result with r murine EphA3 [4], with r murine EphA4 [5], in the assay with r murine EphA7 [6], in the assay with mEphA3, with mEphA4 and in the assay with mEphA7 was “binds” each time. In assay [7], this molecule came in with a dissociation constant Kd of 0.059 nM. Moreover, the koff in assay [7] came out at 1.01e-05 s⁻¹. In addition, the kon in [7] was 172000 M⁻¹ s⁻¹.

B6: 1A4 IgG1 (affinity optimized combinatorial variant of mAb GEA44 in human IgG1 format) (antibody, V domains shown)
VH: B4 VH with F64S
VL: B4 VL
As to B6, the binding result with r murine EphA3 [4], in the assay with r murine EphA4 [5], in the assay with r murine EphA7 [6], with mEphA3, with mEphA4 and with mEphA7 was “binds” throughout. The values for the Kd in assay [7] and in assay [8] were 0.037 nM and 0.8 nM, respectively. The off-rate constant (koff) in assay [7] amounted to 2.87e-05 s⁻¹; in [8], 0.000345 s⁻¹. Moreover, the on-rate constant (kon) came out at 769000 M⁻¹ s⁻¹ in assay [7] and 431000 M⁻¹ s⁻¹ in assay [8].

B7: 1A4 Fab (affinity optimized combinatorial variant of Fab20) (Fab, V domains shown)
VH: B4 VH with F64S
VL: B4 VL
For B7, the binding result in the assay with r murine EphA3 [1], with r murine EphA4 [2] and with r murine EphA7 [3] was “binds” each time.

B8: 1G11 Fab (affinity optimized combinatorial variant of Fab20) (Fab, V domains shown)
VH: B4 VH
VL: B4 VL with P33L, A34P, A55P
For B8, the binding result in the assay with r murine EphA3 [1], with r murine EphA4 [2] and with r murine EphA7 [3] was “binds” in each case.

B9: 1D11 IgG1 (affinity optimized combinatorial variant of mAb GEA44 in human IgG1 format) (antibody, V domains shown)
VH: B4 VH with F101T, G107N
VL: B4 VL with P33L, A34P
As to B9, the binding result in the assay with r murine EphA4 [5], with r murine EphA7 [6], with mEphA4 and with mEphA7 was “binds” each time. For the same molecule, the results for the Kd in assay [7] and in assay [8] were 0.176 nM and 8.8 nM, respectively. Also, the koff is 6.15e-05 s⁻¹ in [7] and 0.000984 s⁻¹ in assay [8]. In addition, the kon in assay [7] is 350000 M⁻¹ s⁻¹; in assay [8], 112000 M⁻¹ s⁻¹.
